The DeepSol protein solubility set

Assay: soluble on expression in E. coli; label from the status in PepcDB or PDB records

Row | Sequence | soluble on expression in E. coli
1 | MARGMNHVYLIGALARDPELRYTGNGMAVFEATVAGEDRVIGNDGRERNLPWYHRVSILGKPAEWQAERNLKGGDAVVVEGTLEYRQWEAPEGGKRSAVNVKALRMEQLGTQPELIQDAGGGVRMSGAMNEVLVLGNVTRDPEIRYTPAGDAVLSLSIAVNENYQDRQGQRQEKVHYIDATLWRDLAENMKELRKGDPVMIMGRLVNEGWTDKDGNKRNSTRVEATRVEALARGAGNANSGYAAATPAAPRTQTASSAARPTSGGYQSQPSRAANTGSRSGGLDIDQGLDDFPPEEDDLPF | soluble
2 | MARGPKKHLKRLAAPKAWMLDKLGGVFAPRPSTGPHKLRESLPLLIFLRNRLKYALNGAEVTKIVMQRLVKVDGKVRTDPTYPAGYMDVITLEKTGEFFRLVYDVKGRFVIHRISAEEAKYKLCKVKKTQLGAKGVPFLVTHDGRTIRYPDPLIHANDSVQVDIASGKITDYIKFDSGNLCMITGGRNLGRVGTVVNRERHPGSFDIVHIKDSQGHVFATRLTNVFIIGKGNKPYISLPKGKGVKLSIAEERDKRLAAKTH | not soluble
3 | MARKNQKAPWEPEEEIIWVSKSEMKRDMEELQKLGEELVGLKPAVLEKFPLSEDLREAIADAQRFKNEARRRQLQRIGKLMRYEDPEPIQAALDKVRNKHSQATAALHKLEMLRDRVVEEGDKAIDDVMELYPEADRQRLRQLARQAAKEKKAGKPAKSYREIFQILKALNEEE | soluble
4 | MARKTKPLTDTEIKAAKPKDADYQLYDGDGLTLLIKSSGSKLWQFRYYRPLTKQRTKQSFGAYPAVSLSDARKLRAESKVLLAKDIDPQEHQKEQVRNSQEAKTNTFLLVAERWWNVKKTSVTEDYADDIWRSLERDIFPAIGDISITEIKAHTLVKAVQPVQARGALETVRRLCQRINEVMIYAQNTGLIDAVPSVNIGKAFEKPQKKNMPSIRPDQLPQLMHTMRTASISMSTRCLFMWQLLTITRPAEAAEARWDEIDFNASEWKIPAARMKMNRDHTVPLSDGALAILEMMKPLSGGREFIFPSRIKPNQPMNSQTVNAALKRAGLGGVLVSHGLRSIASTALNEEGFPPDVIEAALAHVDKNEVRRAYNRSDYLEQRRPMMQWWADLVKAADSGSIVLTHLSKIRLVG | soluble
5 | MARLSQEIILDMAEQIIYEKGMEKTTLYDIAGNLNVTHAALYKHYRNKEDLFQKLALRWLEETSREIFAWTKEKDASPDDALHDWLWLLADTKKTLYKTDRKMFLLYTDYIEQKEELVKNHIEHLAQKAEEVSGRVNQGDAIITAFIYFHNPYFASRWEKAGYVELFERVWQVVR | not soluble
6 | MARPLKQGIDYFPLSVDFLRDIKVRKIKRACGPYTVEILLCLLGNIYRETGYYIGWDEDTMFLVADEVGAKEGLVEETVNKAVQVGFFNQEKFNEYRILTSNGIQKRYLEATKKRKEVVISDIYLVNDTIKDEETLVNGVDNEQSKVNKSKVDKSKVNKNNKEKPAVQLSSEKDFLENPLGDKKTAELIAYYSKNVSLATPVNMTNLAYDLKDFNGDLDLLKEAINICSSNVKTYAYFAGILKQWRANGINTHADFLKKVNKKSKQKNKRDSEPPLNDYSGLF | not soluble
7 | MARRISSQGKVTISVDEYSSNPTQAFTHYNINQSRFQPPHVHMVEPLPYDAPKSVGHTRFVCVSDTHSRTDGIQMPFGDVLLHTGDFTELGLPSEVKKFNDWLGGLPYEYKVVIAGNHELTFDKDFMAELIKQDYYRFPSVSKLRSEDFDDVQSLLTNCVYLQDSEVTIKGFRIYGAPWTPWFNGWGFNLPRGQSLLDKWNQIPEDVDILMTHGPPLGFRDWVPKELQRVGCVELLNTVQKRVRPKLHAYGGIHEGYGIMTDGYTTFINSSTCTVSFQPTNPPIIFDLPNPGNS | not soluble
8 | MARTLFLEEGPMFFEKIAPYTYRIPRQGKMRVDAVFFASKEILKDLEAENYASLQQLMNVATLPGIVEPALAMPDIHWGYGFPIGGVAAFDPEEGGVVSPGGVGFDINCGVRLLASHLTLEDLLPRQKELADALYRLVPSGVGSERRDVRFSKRELKEILKEGAGWLVKRGYGYPEDVRFIESQGRLPWANPDKVSERAFERGAPQIGTLGSGNHFLEVQYVDEVYDEEAALAFGLFKGQVTVLIHTGSRGLGHQVCQDYVERFLKVAPRYGIELVDKQLAAAPIKSPEGQDYLQAMAAAANFAFANRQLIAHFVREAFEKVGFTPRDHGLRVLYDLAHNNAKFEEHRGRRVLVHRKGATRAFGPGHPEVPEEYRRVGQPVLVPGDMGRYSYVLAGTEKAMEVSFGSSCHGAGRKMSRHQAKKVARERNLVKELAERGILVRAATRATVDEEMPEAYKDVSLVVEAVEGAGIGKKVARLRPLIVVKG | soluble
9 | MARVRFENKRVNMSKLSQFGFEPNQNGQYQFRILIMQGQFEMIIELNTDGSLNTTLTDTTTSEVYVLHLTSQAHGQFVGQVAQAYQDVLYNIEQHCYDNDVFQSTPERKLIAQVKAAYGDDLEFLWPKFPQNAVWRRSDTHKWYGALLTVTSDKLALPGATHVVTVLDLRARPEDLSMLIDGQHYLPGYHMNKKHWYSILLDDVVPLATIMDDVKVSYMLAKLEHHHHHH | not soluble
10 | MASDLESSLTSIDWLPQLTLRATIEKLGSASQAGPPGSSRKCSPGSPTDPNATLSKDEAAVHQDGKPRYSYATLITYAINSSPAKKMTLSEIYRWICDNFPYYKNAGIGWKNSIRHNLSLNKCFRKVPRPRDDPGKGSYWTIDTCPDISRKRRHPPDDDLSQDSPEQEASKSPRGGVAGSGEASLPPEGNPQMSLQSPTSIASYSQGTGSVDGGAVAAGASGRESAEGPPPLYNTNHDFKFSYSEINFQDLSWSFRNLYKSMLEKSSSSSQHGFSSLLGDIPPSNNYYMYQQQQPPPPQQQQQQQQPPQPPPQQSQPQQQQAPAQGPSAVGGAPPLHTPSTDGCTPPGGKQAGAEGYGPPPVMAMHPPPLQHGGYHPHQHHPHSHPAQQPPPPQPQAQGQAPINNTGFAFPSDWCSNIDSLKESFKMVNRLNWSSIEQSQFSELMESLRQAEQKNWTLDQHHIANLCDSLNHFLTQTGHVPPQGGTHRPPAPARIADSCALTSGKQESAMSQVNSYGHPQAPHLYPGPSPMYPIPTQDSAGYNRPAHHMVPRPSVPPPGANEEIPDDFDWDLIT | soluble
11 | MASDVTVNVSAEKQVIRGFGGMNHPAWAGDLTAAQRETAFGNGQNQLGFSILRIHVDENRNNWYKEVETAKSAVKHGAIVFASPWNPPSDMVETFNRNGDTSAKRLKYNKYAAYAQHLNDFVTFMKNNGVNLYAISVQNEPDYAHEWTWWTPQEILRFMRENAGSINARVIAPESFQYLKNLSDPILNDPQALANMDILGTHLYGTQVSQFPYPLFKQKGAGKDLWMTEVYYPNSDTNSADRWPEALDVSQHIHNAMVEGDFQAYVWWYIRRSYGPMKEDGTISKRGYNMAHFSKFVRPGYVRIDATKNPNANVYVSAYKGDNKVVIVAINKSNTGVNQNFVLQNGSASNVSRWITSSSSNLQPGTNLTVSGNHFWAHLPAQSVTTFVVNRLEHHHHHHHH | soluble
12 | MASGDVRIASLVPSITELLFDLGLADQLVARTGFCIHPEPAVRAVAKVGGTKDVKLDRLRALAPTHVVVNIDENRRETVDEIRTFVPHVIVTHPCAPEDNLALYRLLGGIFGRRPQAEALVGQLRGELDAIQAQTWPLEHHHHHH | not soluble
13 | MASGPHSTATAAAAASSAAPSAGGSSSGTTTTTTTTTGGILIGDRLYSEVSLTIDHSLIPEERLSPTPSMQDGLDLPSETDLRILGCELIQAAGILLRLPQVAMATGQVLFHRFFYSKSFVKHSFEIVAMACINLASKIEEAPRRIRDVINVFHHLRQLRGKRTPSPLILDQNYINTKNQVIKAERRVLKELGFCVHVKHPHKIIVMYLQVLECERNQTLVQTAWNYMNDSLRTNVFVRFQPETIACACIYLAARALQIPLPTRPHWFLLFGTTEEEIQEICIETLRLYTRKKPNYELLEKEVEKRKVALQEAKLKAKGLNPDGTPALSTLGGFSPASKPSSPREVKAEEKSPISINVKTVKKEPEDRQQASKSPYNGVRKDSKRSRNSRSASRSRSRTRSRSRSHTPRRHYNNRRSRSGTYSSRSRSRSRSHSESPRRHHNHGSPHLKAKHTRDDLKSSNRHGHKRKKSRSRSQSKSRDHSDAAKKHRHERGHHRDRRERSRSFERSHKSKHHGGSRSGHGRHRR | not soluble
14 | MASGRQSGRDTEEYGGLSNSGISSGSHVKDTAYYERRRKNNAAAKKSRDRRRIKEDEIAIRAAYLERQNIELLCRIDALEVQLAAITSAKVTTAAAAAAALEHHHHHH | not soluble
15 | MASIFESPELIGAFIGEVEEQLQLLENNVVELEKNGGTAEVVQELFRAAHTLKGSSATMGFEKMKTLTHEMENVLDKIRNGLLEISRPVIDVLFECLDCLNMLKEDFVSDSNNVKTEITPVITKLKEISSENETNNQNSDSDKAENLETGRREQPIFVLDEKQQEQINQALGIGQNVLVCEVEILEDSQMKSVRACLIMNFLNEWGTVINMVPNVMEIPIDSDVGKVAFLVVTQMSADELRQKVQNDLMDIKEVRVFPYFIQNSISQTKDGETGVRDKDNSSGVKTATEEKRVVHTVRIDVDRLERMMDLVGELVIEQIRIAQVANNLYNQYPSDETVDDLIGISNRVSILINELQEGIMKTRMIPVQQLFSRFPRMVRDLSVSLNKEVNLVLEGGETEIDRTIMEEMSDPLIHLIRNAIDHGIENPEIRKKLGKPEQGTLRVTALPEDSNVIITVEDDGAGIDPQEIKQSAIKKRIVTEQEANNMTEQQLINLIFQTGFSTSQKVSDVSGRGVGMDIVKTHIEKLNGIIDVETCAGSGTKFIIKLPIKLPLTLAILKGLLVKISNETYALPMNNVVEIVRKPKNEIESINGQAVAVIRDRAIPLIWLHDYFGIPRGNERKNTLIVLLGIAEKRFGLVVDELIGNQEIVVTNLGSYIGKVEGISGATILGDRSVACILDVVGIAKIVNSRKVSRIDVEYSKQ | not soluble
16 | MASKASGGSTRNGRDSISKRLGVKRYDGQFVKAGNIIVRQRGTRIYPGKNVGMGSDYTLFALKDGYVYFETRRKKKFVSVLSPEEWEKVMAQKNGKVH | not soluble
17 | MASKIEPGSPQPIYLDVQATAPMDPRVVDAMLPYMINDFGNPHSRTHSYGWKAEEGVEQAREHVANLIKADPRDIIFTSGATESNNLAIKGVAKFRKQSGKNHIITLQTEHKCVLDSCRYLENEGFKVTYLPVDKGGMVDMEQLTQSITAETCLVSIMFVNNEIGVMQPIKQIGELCRSKGVYFHTDAAQATGKVPIDVNEMKIDLMSISAHKIYGPKGAGALYVRRRPRVRIEAQMSGGGQERGLRSGTVAAPLCIGLGEAAKIADKEMAMDKAHVERLSQMLINGISDKLPHIIRNGDARHAYPGCVNLSFAYVEGESLLMALKSIALSSGSACTSASLEPSYVLRAIGSEEDLAHSSIRFGLGRFTTDEEVKHTIDLCIRETNRLRDLSPLWEMVQEGIDLKSIQWTQH | not soluble
18 | MASKRIIRMSDLLHTTPVFNRGYRFQWEQAQQSYVILYPEGLVRLNESATLILKQIDGKLTVHDIIQNLSAQFPDATGLDQDIVEFLKQAESRQWICLQ | not soluble
19 | MASLLNARTAVITGGAQGLGLAIGQRFVAEGARVVLGDVNLEATEVAAKRLGGDDVALAVRCDVTQADDVDILIRTAVERFGGLDVMVNNAGITRDATMRTMTEEQFDQVIAVHLKGTWNGTRLAAAIMRERKRGAIVNMSSVSGKVGMVGQTNYSAAKAGIVGMTKAAAKELAHLGIRVNAIAPGLIRSAMTEAMPQRIWDQKLAEVPMGRAGEPSEVASVAVFLASDLSSYMTGTVLDVTGGRFI | soluble
